Series [1] concerns the target T1, I211R mutant Kvβ2 expressed in complex with the T1 domain (rat, UniProt P62483 36-367, I211R).
T1 sequence (looked up): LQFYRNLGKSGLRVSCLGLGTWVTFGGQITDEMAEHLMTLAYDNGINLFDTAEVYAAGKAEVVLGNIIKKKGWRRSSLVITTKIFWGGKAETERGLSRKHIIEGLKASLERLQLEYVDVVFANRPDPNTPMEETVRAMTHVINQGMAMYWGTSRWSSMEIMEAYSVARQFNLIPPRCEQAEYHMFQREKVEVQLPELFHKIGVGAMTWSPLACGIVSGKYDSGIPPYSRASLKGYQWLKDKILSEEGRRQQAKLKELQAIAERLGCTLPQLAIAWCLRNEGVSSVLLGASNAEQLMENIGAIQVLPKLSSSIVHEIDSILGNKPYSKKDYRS
As to the kind of experiment: pull-down.

Series [2] deals with the molecule itself. As to the kind of experiment: crystal structure.

Residue numbers refer to the chain shown, from its start. Names may count otherwise.

Here are results for 4 molecules from paper PMC2633621 (Nature chemical biology, 2008).

B1: T1 domain of Kv1.1 (residues 2 to 135), fusion with N-terminal 6-histidine tag and SUMO protein (domain or fragment, rat, UniProt P10499 2-135, looked up)
chain: TVMSGENADEASAAPGHPQDGSYPRQADHDDHECCERVVINISGLRFETQLKTLAQFPNTLLGNPKKRMRYFDPLRNEYFFDRNRPSFDAILYYYQSGGRLRRPVNVPLDMFSEEIKFYELGEEAMEKFREDEG
Take B1: the binding result in series [1] is given as “binds”.

B2: Kvβ2 conserved core (residues 36 to 367), purified and co-crystallized with cortisone (domain or fragment, rat, UniProt P62483 36-367, looked up)
chain: T1 sequence (looked up) with R176I
Take B2: the stoichiometry N (as a rule, a count of units in the complex or per binding partner) in series [2] was found to be 4.

B3: W121A mutant Kvβ2, co-crystallized with cortisone (domain or fragment, rat, UniProt P62483 36-367, looked up)
chain: T1 sequence (looked up) with W86A, R176I
B3: the binding result in series [2] was “binds”.

B4: I211R mutant Kvβ2, co-crystallized with 2 mM cortisone (domain or fragment, rat, UniProt P62483 36-367, looked up)
chain: T1 sequence (looked up)
Turning to B4, the binding result in series [2] is “binds”.
